The chains are these.
B1: Tau01 HNKJ (antibody, V domains shown)
VH: LVQVVESGGGLVQPGGSLKLSCAASGFTFNTYAMNWVRQASGKGLEWVGRIRSKSNNYATYYAASVKGRFTISRDDSKSMAYLQMDSLKTEDTAVYYCVGGGDFWGQGTLVTVSS
VL: DIQMTQSPSSLSASVGDRVTITCRASQEISVYLGWYQQKPGKAPKRLIYGAFSLQSGVPSRFSGSRSGTEFTLTISSLQPEDFATYYCLQYVRYPWTFGGGTKVEIK
notes: human IgG4 kappa (HuG4K)
B2: Tau01 HNKG (antibody, V domains shown)
VH: B1 VH
VL: B1 VL with S53T
notes: human IgG4 kappa (HuG4K)
B3: Tau01 HNKA (antibody, V domains shown)
VH: B1 VH
VL: B1 VL with S53K
notes: human IgG4 kappa (HuG4K)
B4: Tau01 HNKI (antibody, V domains shown)
VH: B1 VH
VL: B1 VL with S53K, F71Y
notes: human IgG4 kappa (HuG4K)
B5: Tau01 HNKB (antibody, V domains shown)
VH: B1 VH
VL: B1 VL with G34S, Y36F, P44I, S53T, T69S, F71Y
notes: human IgG4 kappa (HuG4K)
B6: Tau01 HMKA (antibody, V domains shown)
VH: B1 VH with V4L, G49A
VL: B1 VL with S53K
notes: human IgG4 kappa (HuG4K)
B7: Tau01 HMKI (antibody, V domains shown)
VH: B1 VH with V4L, G49A
VL: B1 VL with S53K, F71Y
notes: human IgG4 kappa (HuG4K)
B8: Tau01 HMKG (antibody, V domains shown)
VH: B1 VH with V4L, G49A
VL: B1 VL with S53T
notes: human IgG4 kappa (HuG4K)
B9: Tau01 HMKJ (antibody, V domains shown)
VH: B1 VH with V4L, G49A
VL: B1 VL
notes: human IgG4 kappa (HuG4K)
B10: Tau01 HMKB (antibody, V domains shown)
VH: B1 VH with V4L, G49A
VL: B1 VL with G34S, Y36F, P44I, S53T, T69S, F71Y
notes: human IgG4 kappa (HuG4K)
B11: Tau01 HCKI (antibody, V domains shown)
VH: B1 VH with V4L
VL: B1 VL with S53K, F71Y
notes: human IgG4 kappa (HuG4K)
B12: Tau01 HCKJ (antibody, V domains shown)
VH: B1 VH with V4L
VL: B1 VL
notes: human IgG4 kappa (HuG4K)
B13: Tau01 HCKE (antibody, V domains shown)
VH: B1 VH with V4L
VL: B1 VL with Y36F, S53K
notes: human IgG4 kappa (HuG4K)
B14: HCKH (antibody, V domains shown)
VH: B1 VH with V4L
VL: B1 VL with S53K, T69S
notes: humanized variant, HC with KH; also called Tau01 HCKH HuG4K
B15: Tau01 HCKA (antibody, V domains shown)
VH: B1 VH with V4L
VL: B1 VL with S53K
notes: human IgG4 kappa (HuG4K)
B16: Tau01 HCKG (antibody, V domains shown)
VH: B1 VH with V4L
VL: B1 VL with S53T
notes: human IgG4 kappa (HuG4K)
B17: Tau01 HCKC (antibody, V domains shown)
VH: B1 VH with V4L
VL: B1 VL with G34S, Y36F, S53K, F71Y
notes: human IgG4 kappa (HuG4K)
B18: Tau01 HOKJ (antibody, V domains shown)
VH: B1 VH with G49A
VL: B1 VL
notes: human IgG4 kappa (HuG4K)
B19: Tau01 HOKG (antibody, V domains shown)
VH: B1 VH with G49A
VL: B1 VL with S53T
notes: human IgG4 kappa (HuG4K)
B20: Tau01 HOKI (antibody, V domains shown)
VH: B1 VH with G49A
VL: B1 VL with S53K, F71Y
notes: human IgG4 kappa (HuG4K)
B21: Tau01 HOKA (antibody, V domains shown)
VH: B1 VH with G49A
VL: B1 VL with S53K
notes: human IgG4 kappa (HuG4K)
B22: Tau01 HOKB (antibody, V domains shown)
VH: B1 VH with G49A
VL: B1 VL with G34S, Y36F, P44I, S53T, T69S, F71Y
notes: human IgG4 kappa (HuG4K)

Residue numbers refer to the chain shown, from its start. Where “and” joins values, the source holds several entries; their conditions need not be identical. Equal entries are not always repeated.

In the first experiment the target is T1, TauC3 (C-terminally truncated tau fragment ending at aspartate 421 of htau40) (human, UniProt P10636 1-738).
T1 construct: Generated and purified by Genscript; also called Human TauC3; recombinant TauC3 protein
T1 sequence (P10636 other isoform, or with tags, fused parts or gaps): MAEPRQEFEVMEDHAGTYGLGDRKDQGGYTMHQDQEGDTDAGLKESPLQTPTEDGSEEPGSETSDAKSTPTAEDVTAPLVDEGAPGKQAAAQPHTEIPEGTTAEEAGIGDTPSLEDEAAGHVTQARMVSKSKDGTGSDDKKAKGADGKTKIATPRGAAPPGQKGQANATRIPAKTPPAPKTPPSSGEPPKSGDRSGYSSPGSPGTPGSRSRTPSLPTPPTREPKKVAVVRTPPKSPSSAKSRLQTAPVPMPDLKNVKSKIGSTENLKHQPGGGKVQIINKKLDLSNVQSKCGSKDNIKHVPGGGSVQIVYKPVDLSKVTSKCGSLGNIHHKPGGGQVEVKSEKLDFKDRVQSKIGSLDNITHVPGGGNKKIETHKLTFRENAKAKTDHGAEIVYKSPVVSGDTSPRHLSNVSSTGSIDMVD
Description: binding ELISA on coated TauC3, OD650. The essentials:
(§1)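 TauC3 antigen, made and purified by Genscript, was coated for a binding ELISA. The antibodies tested were chimeric or humanized IgG4κ expressed in ExpiCHO cells. Binding was recorded as absorbance at 650 nm, and EC50 came from the concentration-response of each antibody.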
(In an ELISA, binding on a coated surface is turned into a signal by an enzyme label.)
In general, EC50 refers to the concentration needed to bring the measured effect to its halfway point. In turn, B1 had an EC50 of 2.56 nM.
B2: a half-maximal response (EC50) required 1.08 nM.
The molecule B3 showed an EC50 of 1.09 nM.
On the same count and under the same terms, the same measure for B4: 0.765 nM; for B5: 0.59 nM.

The target of a further experiment is T1, TauC3 (C-terminally truncated tau …). In words: binding ELISA on coated TauC3, OD650. The source holds these as a separate data set. The essentials: as §1
Regarding B6, the EC50 is 0.556 nM.
Same read-out and setting: the result for B7 reads 0.549 nM; that for B8, 0.543 nM; that for B9, 0.522 nM.
The same measure, in the same setting: the result for B10 reads 0.412 nM.

For another experiment the target is unchanged. In words: Biacore off-rate ranking, TauC3 amine-coupled on CM5, one antibody concentration; two-phase decay fit, slow phase. The arrangement: unit not given here. The protocol: (§2) To further evaluate the binding data observed on the Octet, an off-rate ranking experiment was performed on the Biacore 200 instrument. Biacore offers greater selectivity than the Octet and facilitated the immobilization of TauC3 onto a CM5 chip via amine coupling which stabilizes the antigen. This produces higher quality data with stable baselines and good reproducible responses. Once TauC3 is immobilized, one concentration (5 nM) of antibody is added, followed by a dissociation and regeneration step (Section 8.20). The off-rates were fitted using a two-phase decay model (FIG. 25B) or a one phase decay fitting only the second off-rate (FIG. 25A). The candidates were then ranked based on the off-rates obtained using the fits and compared. The data agreed with the Octet results (albeit with a different ranking order), highlighting Tau01 HMKM, HMKO, HMKP, HMKN and HMKE as the humanized variants with the slowest off-rates. The lack of binding of FL Tau to chimeric and a humanized candidate was also confirmed by Biacore by loading the antibody onto a Protein G chip and adding 250 nM FL Tau.
On to B6, for which the Kslow came out at 0.000815.
Same read-out and setting: the result for B7 reads 0.00179; that for B8, 0.000384; that for B9, 0.00123.
B10 gave a Kslow of 0.000138.

Another experiment shares this target. Description: binding ELISA on coated TauC3, OD650. The source holds these as a separate data set. The essentials: as §1
With B11, the concentration for a half-maximal effect (EC50) stood at 0.741 nM.
B12: the EC50 was determined as 1.01 nM.
Consider B13, for which the midpoint of the response, the EC50, lay at 1.24 nM.
In the case of B14, the EC50 stood at 1.03 nM.
On the same count and under the same terms, the same measure for B15: 0.959 nM.
Regarding B16, it took 0.98 nM to reach a half-maximal effect (EC50).

The target is the same in another experiment. In words: binding ELISA on coated TauC3, OD650; right table (HM variants). The essentials:
as §1
For B6, the EC50 was 0.641 nM and 0.462 nM.
Still for that read-out and setting: the same measure for B7: 0.474 nM and 0.458 nM; for B8: 0.515 nM and 0.607 nM.
For the molecule B9, the EC50 turned out to be 0.433 nM.
For the molecule B16, the 50% effective concentration (EC50) is 0.573 nM.

The target is the same in another experiment. Description: binding ELISA on coated TauC3, OD650; left table (HC variants). The essentials:
as §1
In turn, B11 registered a 50% effective concentration (EC50) of 0.655 nM.
B12 showed a concentration giving a half-maximal response (EC50) of 0.766 nM.
In turn, B13 registered an EC50 of 0.941 nM.
On the same count and under the same terms, the result for B17 reads 1.57 nM; that for B15, 1.52 nM; that for B16, 0.573 nM.

The next experiment has the same target. In words: Biacore off-rate ranking, TauC3 amine-coupled on CM5, one antibody concentration; one-phase exponential decay fit. The protocol: as §2
Background: Surface plasmon resonance follows binding to a sensor surface in real time, without labels.
The koff is the rate constant with which the complex falls apart. The molecule B6 displayed a koff of 0.000882 s⁻¹.
Same read-out and setting: the same measure for B7: 0.00181 s⁻¹; for B8: 0.000453 s⁻¹; for B9: 0.00136 s⁻¹.
B10 had a koff of 0.00062 s⁻¹.

Another experiment shares this target. In words: binding ELISA on coated TauC3, OD650. This is another data set of the same source. A digest of the protocol: as §1
In turn, B18 had an EC50 of 0.556 nM.
B19 returned an EC50 of 0.604 nM.
On the same count and under the same terms, the same measure for B20: 0.482 nM; for B21: 0.389 nM.
The same measure, in the same setting: the same measure for B22: 0.51 nM.

A further experiment shares this target. In words: binding ELISA on coated TauC3, OD650. The source holds these as a separate data set. A digest of the protocol: as §1
In turn, B17 came in with an EC50 of 1.34 nM.
On the same count and under the same terms, the same measure for B15: 6.45 nM.

The values are drawn from patent publication US20220064272A1 (TAUC3 BIOLOGICS, published 2022).
